Data from patent US7902341B2, “Methods and compositions for modulating somatolactogenic functions” (Trustees of the University of Pennsylvania, priority 1999, dated 2011).

B1: Myc-tagged PRL: recombinant human PRL with myc-tag expressed in Drosophila S2 cells (protein)
chain: LPICPGGAARCQVTLRDLFDRAVVLSHYIHNLSSEMFSEFDKRYTHGRGFITKAINSCHTSSLATPEDKEQAQQMNQKDFLSLIVSILRSWNEPLYHLVTEVRGMQEAPEAILSKAVEIEEQTKRLLEGMELIVSQVHPETKENEIYPVWSGLPSLQMADEESRLSAYYNLLHCLRRDSHKIDNYLKLLKCRIIHNNNC
modifications: left off: small tags and cut ends
notes: recombinant human PRL with myc-tag expressed in Drosophila S2 cells
B2: PRL: human prolactin, pituitary isolated or recombinant (protein)
chain: B1 chain
modifications: left off: small tags and cut ends
notes: human prolactin, pituitary isolated or recombinant

Tested on: Nb2 cells
Experiment: Nb2 cell proliferation (3H-thymidine) to assess CypB modulation of somatolactogenic action
Format: cell-based, rat
Experimental: The effect of exogenous CypB on PRL-driven proliferation was examined with the rat Nb2 T-cell and the human T47D breast cancer line. […] This dose-dependent biphasic effect was most prominent at physiologic concentrations (5-10 mM) of CypB and PRL (50 pM) found in human serum. […] To determine the effect of CypB on cellular growth driven by the larger family of cytokines, to which PRL belongs, proliferation driven by interleukin-2 (IL-2), IL-3 and GH was examined.
Nb2-cells (5×10^4; PRL-dependent, rat T-lymphoma) were plated in each well of 96 well plates in a defined DMEM-serum free medium (0.1 mM 2-mercaptoethanol, 1% penicillin/streptomycin, and 1% ITS+(Calbiochem)). Cells were rested for 24 hours at 37° C. in this defined medium in the absence of PRL before the addition of 5-500 pM PRL (either as human pituitary isolated PRL, National Hormone and Pituitary Program, NIDDK; recombinant human PRL from E. coli, Genzyme; or recombinant human PRL from Drosophila S2 cells) alone or premixed with 1-2000 fold excess of purified CypB. Parallel studies were performed using human pituitary-derived GH (National Hormone and Pituitary Program, NIDDK). Cultures were incubated for 48 hours at 37° C. and proliferation was evaluated by the addition of 0.5 μCi of ^3H-thymidine for four hours followed by harvesting and scintillography. […]

Molecule	bioactivity in Nb2 bioassays (protein secreted by Drosophila S2 cells)	PRL concentration at which the sigmoid Nb2 growth curve plateaus (Nb2 cells stimulated with PRL alone)
B1	functionally bioactive	–
B2	–	approximately 2 ng PRL/ml
